According to patent publication US20240239915A1 (Zymeworks, published 2024):
Read-outs that look alike come from different tables or passages of the source.

B1: L234A/L235A (LALA) variant of IgG1 WT of the anti-EGFR antibody panitumumab (antibody)
heavy: not shown
light: not shown
notes: Mutations in both CH2 domains
B2: L234A/L235A/D265T (LALA-DT) variant of IgG1 WT of the anti-EGFR antibody panitumumab (antibody)
heavy: QVQLQESGPGLVKPSETLSLTCTVSGGSVSSGDYYWTWIRQSPGKGLEWIGHIYYSGNTNYNPSLKSRLTISIDTSKTQFSLKLSSVTAADTAIYYCVRDRVTGAFDIWGQGTMVTVSSASTKGPSVFPLAPSSKSTSGGTAALGCLVKDYFPEPVTVSWNSGALTSGVHTFPAVLQSSGLYSLSSVVTVPSSSLGTQTYICNVNHKPSNTKVDKRVEPKSCDKTHTCPPCPAPEAAGGPSVFLFPPKPKDTLMISRTPEVTCVVVTVSHEDPEVKFNWYVDGVEVHNAKTKPREEQYNSTYRVVSVLTVLHQDWLNGKEYKCKVSNKALPAPIEKTISKAKGQPREPQVYTLPPSREEMTKNQVSLTCLVKGFYPSDIAVEWESNGQPENNYKTTPPVLDSDGSFFLYSKLTVDKSRWQQGNVFSCSVMHEALHNHYTQKSLSLSPGK
light: not shown
notes: Mutations in both CH2 domains; positions are EU numbers
B3: L234A/L235A/D265Q (LALA-DQ) variant of IgG1 WT of the anti-EGFR antibody panitumumab (antibody)
heavy: QVQLQESGPGLVKPSETLSLTCTVSGGSVSSGDYYWTWIRQSPGKGLEWIGHIYYSGNTNYNPSLKSRLTISIDTSKTQFSLKLSSVTAADTAIYYCVRDRVTGAFDIWGQGTMVTVSSASTKGPSVFPLAPSSKSTSGGTAALGCLVKDYFPEPVTVSWNSGALTSGVHTFPAVLQSSGLYSLSSVVTVPSSSLGTQTYICNVNHKPSNTKVDKRVEPKSCDKTHTCPPCPAPEAAGGPSVFLFPPKPKDTLMISRTPEVTCVVVQVSHEDPEVKFNWYVDGVEVHNAKTKPREEQYNSTYRVVSVLTVLHQDWLNGKEYKCKVSNKALPAPIEKTISKAKGQPREPQVYTLPPSREEMTKNQVSLTCLVKGFYPSDIAVEWESNGQPENNYKTTPPVLDSDGSFFLYSKLTVDKSRWQQGNVFSCSVMHEALHNHYTQKSLSLSPGK
light: not shown
notes: as for B2

Columns and labels:
[1] = biological target: T1, human FcRn (human neonatal Fc receptor large subunit p51 and beta2-microglobulin), biotinylated (human, UniProt P55899 24-297; P61769 21-119, biotinylated (site not stated)); experiment: BLI (Octet RED384), biotinylated FcRn on streptavidin biosensor, binding and dissociation at pH 6.0
T1 sequence (P55899 24-297 limits assumed, chain 1 of 2): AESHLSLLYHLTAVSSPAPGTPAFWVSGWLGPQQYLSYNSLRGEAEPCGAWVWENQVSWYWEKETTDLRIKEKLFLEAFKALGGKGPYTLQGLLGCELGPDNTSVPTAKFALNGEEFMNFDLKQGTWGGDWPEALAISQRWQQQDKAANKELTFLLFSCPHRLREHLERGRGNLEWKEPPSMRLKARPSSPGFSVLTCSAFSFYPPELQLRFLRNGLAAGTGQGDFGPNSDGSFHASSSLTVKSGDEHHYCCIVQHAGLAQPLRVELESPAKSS
T1 sequence (P61769 21-119 limits assumed, chain 2 of 2): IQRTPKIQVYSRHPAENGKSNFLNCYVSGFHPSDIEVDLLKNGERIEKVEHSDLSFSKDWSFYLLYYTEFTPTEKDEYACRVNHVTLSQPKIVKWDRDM

[2] = biological target: T2, Recombinant Cynomolgus Fc gamma RIIB protein (R&D Systems), His-tagged (cynomolgus); experiment: SPR (Biacore T200); receptor immobilized directly on CM5 chip, antibody as analyte at 4.7 µM
T2 construct: also called cynomolgus FcγRIIb; cFcγRIIb
T2 chain: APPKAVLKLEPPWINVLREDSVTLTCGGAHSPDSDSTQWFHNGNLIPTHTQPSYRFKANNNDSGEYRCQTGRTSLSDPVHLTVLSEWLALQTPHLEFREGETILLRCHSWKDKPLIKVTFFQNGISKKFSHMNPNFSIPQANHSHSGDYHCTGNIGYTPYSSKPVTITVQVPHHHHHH

[3] = biological target: T3, Recombinant Cynomolgus Fc gamma RIII/CD16 Protein (R&D Systems), His-tagged (cynomolgus, UniProt Q8SPW2 17-208); experiment: as above
T3 construct: also called cynomolgus FcγRIII; cFcγRIII
T3 chain: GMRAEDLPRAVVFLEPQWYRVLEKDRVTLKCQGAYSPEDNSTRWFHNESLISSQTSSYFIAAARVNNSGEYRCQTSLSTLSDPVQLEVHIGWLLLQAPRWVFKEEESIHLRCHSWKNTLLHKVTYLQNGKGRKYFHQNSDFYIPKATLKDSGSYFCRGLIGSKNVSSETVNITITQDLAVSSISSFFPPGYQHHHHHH

[4] = biological target: T4, Recombinant Cynomolgus Fc gamma RIIA/CD32a Protein (R&D Systems), His-tagged (cynomolgus); experiment: as above
T4 construct: also called cynomolgus FcγRIIa; cFcγRIIa
T4 chain: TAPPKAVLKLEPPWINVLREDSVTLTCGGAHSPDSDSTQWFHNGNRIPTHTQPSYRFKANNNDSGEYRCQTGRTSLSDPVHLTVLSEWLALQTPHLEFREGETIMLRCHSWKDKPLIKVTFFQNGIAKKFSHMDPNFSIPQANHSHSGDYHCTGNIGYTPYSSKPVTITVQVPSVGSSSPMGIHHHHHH

[5] = biological target: T1, human FcRn (human neonatal Fc receptor …); experiment: BLI (Octet RED384), biotinylated FcRn on streptavidin biosensor, binding at pH 6.0, dissociation at pH 7.4
[6] = biological target: T5, Recombinant Cynomolgus Monkey Fc gamma RI/CD64 Protein, CF (R&D Systems), His-tagged (cynomolgus, UniProt P12314 11-288 (human entry)); experiment: SPR (Biacore T200); His-tagged receptor captured on anti-His antibody chip, antibody as analyte at 4.7 µM
T5 construct: also called cynomolgus FcγRI; cFcγRI
T5 chain: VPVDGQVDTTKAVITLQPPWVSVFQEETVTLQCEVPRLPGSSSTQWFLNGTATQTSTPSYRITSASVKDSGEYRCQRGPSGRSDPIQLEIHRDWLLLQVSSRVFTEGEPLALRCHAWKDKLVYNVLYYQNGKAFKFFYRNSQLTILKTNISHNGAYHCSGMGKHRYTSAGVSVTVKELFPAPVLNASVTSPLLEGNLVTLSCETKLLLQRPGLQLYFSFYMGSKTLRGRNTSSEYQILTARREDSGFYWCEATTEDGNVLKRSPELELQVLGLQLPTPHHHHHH

[7] = biological target: T6, Recombinant Human Fc gamma RIIIA/CD16a protein (R&D Systems), His-tagged (human, UniProt P08637 17-208); experiment: SPR (Biacore T200); receptor immobilized directly on CM5 chip, antibody as analyte at 4.7 µM
T6 construct: also called human FcγRIIIa; hFcγRIIIa
T6 sequence (P08637 other isoform, or with tags, fused parts or gaps): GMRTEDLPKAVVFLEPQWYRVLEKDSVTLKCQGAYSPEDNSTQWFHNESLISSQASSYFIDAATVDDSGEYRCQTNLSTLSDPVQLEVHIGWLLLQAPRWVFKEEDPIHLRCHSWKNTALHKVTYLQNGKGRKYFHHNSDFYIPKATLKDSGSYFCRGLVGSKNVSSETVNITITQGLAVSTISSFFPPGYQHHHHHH

[8] = biological target: T7, Recombinant Human Fc gamma RIIA/CD32a (H167) Protein (R&D Systems), His-tagged (human, UniProt P12318 34-218); experiment: as above
T7 construct: also called human FcγRIIa (H167); hFcγRIIa (H167)
T7 sequence: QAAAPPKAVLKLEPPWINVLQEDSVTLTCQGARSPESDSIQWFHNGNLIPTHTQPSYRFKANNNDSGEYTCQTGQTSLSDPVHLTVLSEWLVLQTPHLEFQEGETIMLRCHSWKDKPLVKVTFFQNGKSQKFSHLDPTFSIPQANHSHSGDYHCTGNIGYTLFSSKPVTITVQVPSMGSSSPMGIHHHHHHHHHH

[9] = biological target: T8, Recombinant Human Fc gamma RIIA/CD32a (R167) Protein (R&D Systems), His-tagged (human, UniProt P12318 36-218); experiment: as above
T8 construct: also called human FcγRIIa; hFcγRIIa
T8 chain: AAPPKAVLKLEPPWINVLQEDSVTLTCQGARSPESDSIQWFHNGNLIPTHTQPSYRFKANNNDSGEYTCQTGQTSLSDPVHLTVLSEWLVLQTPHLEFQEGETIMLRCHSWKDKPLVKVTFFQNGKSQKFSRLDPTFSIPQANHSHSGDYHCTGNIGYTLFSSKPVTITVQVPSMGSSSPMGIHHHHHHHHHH

[10] = biological target: T9, Recombinant Human Fc gamma RIIB/C (CD32b/c) Protein (R&D Systems), His-tagged (human, UniProt P31994 46-217); experiment: as above
T9 construct: also called human FcγRIIb/c; hFcγRIIb/c
T9 sequence: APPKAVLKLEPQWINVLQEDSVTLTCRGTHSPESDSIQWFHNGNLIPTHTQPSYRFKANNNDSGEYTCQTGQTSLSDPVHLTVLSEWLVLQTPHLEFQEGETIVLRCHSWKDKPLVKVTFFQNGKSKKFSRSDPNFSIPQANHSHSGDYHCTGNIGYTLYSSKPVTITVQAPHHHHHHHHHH

[11] = biological target: T2, Recombinant Cynomolgus Fc gamma RIIB …; experiment: as above
[12] = biological target: T3, Recombinant Cynomolgus Fc gamma …; experiment: as above
[13] = biological target: T4, Recombinant Cynomolgus Fc gamma …; experiment: as above
[14] = biological target: T5, Recombinant Cynomolgus Monkey Fc gamma …; experiment: SPR (Biacore T200), RU at 4.7 µM antibody
[15] = biological target: T6, Recombinant Human Fc gamma RIIIA/CD16a …; experiment: SPR (Biacore T200); receptor immobilized directly on CM5 chip, antibody as analyte at 4.7 µM; remark: listed apart in the source
[16] = biological target: T10, Recombinant Human Fc gamma RIIIA/CD16a (V176F) Protein (R&D Systems), His-tagged (human, UniProt P08637 17-208); experiment: as above
T10 construct: no further substitution applied; also called human FcγRIIIa (V176F); hFcγRIIIa (V176F)
T10 sequence (P08637 other isoform, or with tags, fused parts or gaps V176F V176F): as the sequence (P08637 other isoform, or with tags, fused parts or gaps) above, with V160F counted along it

[17] = biological target: T11, Recombinant Human Fc gamma RIIIB/CD16b Protein (R&D Systems), His-tagged (human, UniProt O75015 20-208); experiment: as above
T11 construct: also called human FcγRIIIb; hFcγRIIIb
T11 chain: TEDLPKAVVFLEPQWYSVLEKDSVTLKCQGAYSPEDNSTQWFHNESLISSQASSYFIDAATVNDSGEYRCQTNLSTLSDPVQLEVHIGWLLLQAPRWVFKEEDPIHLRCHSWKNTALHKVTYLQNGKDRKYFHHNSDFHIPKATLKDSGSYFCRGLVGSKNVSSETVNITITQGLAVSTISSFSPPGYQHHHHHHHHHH

[18] = biological target: T7, Recombinant Human Fc gamma RIIA/CD32a …; experiment: as above; remark: listed apart in the source
[19] = biological target: T9, Recombinant Human Fc gamma RIIB/C …; experiment: as above; remark: listed apart in the source

Row | Binder | Kd [1] [nM] | binding response (RU) [2] [RU] | binding response (RU) [3] [RU] | binding response (RU) [4] [RU] | koff [5] [s⁻¹] | binding response (RU) [6] [RU] | binding response (RU) [7] [RU] | binding response (RU) [8] [RU] | binding response (RU) [9] [RU] | binding response (RU) [10] [RU] | binding response (RU) [11] [RU] | binding response (RU) [12] [RU] | binding response (RU) [13] [RU] | RU value relative to the LALA-DA variant [14] [fold] | binding response (RU) [15] [RU] | binding response (RU) [16] [RU] | binding response (RU) [17] [RU] | binding response (RU) [18] [RU] | binding response (RU) [19] [RU]
1 | B1 | 5.5 | 270 | 540 | 94 | 2.8 | 3200 | 420 | 160 | 330 | 78 |  |  |  |  |  |  |  |  | 
2 | B2 |  |  |  |  |  |  |  |  |  |  | 93 | 4.8 | 24 | ≥ 1.4 | -1.4 | -3.6 | -0.2 | 37 | 15
3 | B3 |  |  |  |  |  |  |  |  |  |  | 89 | 3.5 | 22 | ≥ 1.4 | -2.1 | -3.5 | -0.6 | 34 | 15
